Source: paper PMC11096383

Target: G12D (M3D-GPR183/ICL3 F93^1.57V), FLAG-epitope-tagged (human)
Sequence (chain, as listed by the source G12D): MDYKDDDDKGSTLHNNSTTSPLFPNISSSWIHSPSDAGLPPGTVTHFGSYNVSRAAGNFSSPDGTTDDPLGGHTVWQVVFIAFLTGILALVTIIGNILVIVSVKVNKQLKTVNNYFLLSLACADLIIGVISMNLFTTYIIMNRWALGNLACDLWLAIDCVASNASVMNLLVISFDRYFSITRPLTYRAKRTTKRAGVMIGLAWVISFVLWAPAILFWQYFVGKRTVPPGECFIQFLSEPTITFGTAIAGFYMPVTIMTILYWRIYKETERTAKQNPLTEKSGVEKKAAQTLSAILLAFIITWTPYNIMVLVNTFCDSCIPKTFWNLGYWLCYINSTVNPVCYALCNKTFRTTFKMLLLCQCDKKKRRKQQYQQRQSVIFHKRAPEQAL

TGFα shedding assay (AP-TGFα release on CNO, concentration-response) in ∆Gq/∆G12 HEK293 cells; relative intrinsic activity (RAi) of Gα (q-12C) against Gα (q-13C): 4.6 fold
B1: Gα_(q-12C) (protein)
chain: MTLESIMACCLSEEAKEARRINDEIERQLRRDKRDARRELKLLLLGTGESGKSTFIKQMRIIHGSGYSDEDKRGFTKLVYQNIFTAMQAMIRAMDTLKIPYKYEHNKAHAQLVREVDVEKVSAFENPYVDAIKSLWNDPGIQECYDRRREYQLSDSTKYYLNDLDRVADPAYLPTQQDVLRVRVPTTGIIEYPFDLQSVIFRMVDVGGQRSERRKWIHCFENVTSIMFLVALSEYDQVLVESDNENRMEESKALFRTIITYPWFQNSSVILFLNKKDLLEEKIMYSHLVDYFPEYDGPQRDAQAAREFILKMFVDLNPDSDKIIYSHFTCATDTENVRFVFHAVKDTILQENLKDIMLQ
